Results: paper PMC9684555, “Structure- and computational-aided engineering of an oxidase to produce isoeugenol from a lignin-derived compound” (Nature Communications, 2022)

Biological target: the molecule itself
Assay: crystal structure; sitting-drop vapor diffusion at 20 °C; crystals soaked 1 h with 5 mM 4-n-propylguaiacol; 2.9 Å; eight subunits in the asymmetric unit

B1: S394V-EUGO5X mutant of eugenol oxidase (EUGO) from Rhodococcus jostii RHA1 (enzyme)
chain: MTRTLPPGVSDERFDAALQRFRDVVGDKWVLSTADELEAFRDPYPVGAAEANLPSAVVSPESTEQVQDIVRIANEYGIPLHPVSTGKNNGYGGAAPRLSGSVIVKTGERMNRILEVNEKYGYALLEPGVTYFDLYEYLQSHDSGLMLDCPDLGWGSVVGNTLDRGVGYTPYGDHFMWQTGLEVVLPQGEVMRTGMGALPGSDAWQLFPYGFGPFPDGMFTQSNLGIVTKMGIALMQRPPASQSFLITFDKEEDLEQIVDIMLPLRINMAPLQNVPVLRNIFMDAAAVSKRTEWFDGDGPMPAEAIERMKKDLDLGFWNFYGTLYGPPPLIEMYYGMIKEAFGKIPGARFFTHEERDDRGGHVLQDRHKINNGIPSLDELQLLDWVPNGGHIGFVPVSAPDGREAMKQFEMVRNRANEYNKDYMAQFIIGLREMYHVCLFIYDTADPEAREEILQMTKVLVREAAEAGYGEYRTHNALMDDVMATFNWGDGALLKFHEKIKDALDPNGIIAPGKSGIWPQRFRGQNL
modifications: covalently bound FAD cofactor
notes: eugenol oxidase (EUGO), Rhodococcus jostii RHA1, UniProt Q0SBK1; EUGO5X = S81H, A423M, H434Y, I445D, S518P, with S394V added; Tag-less protein after SUMO protease; crystals were soaked with 4-n-propylguaiacol; also called sixfold mutant S394V-EUGO5X; source: E. coli, from pBAD-His-Sumo-S394V-EUGO5X, purified (HisTrap, SUMO protease, reverse nickel, Superdex 200)
stoichiometry N: 2
